This experiment deals with CNOT1 (UniProt A5YKK6). In words: co-IP with FLAG-tagged YTHDF2. The conditions noted are these: reference: wild type; sites S39.

On to YTHDF2 (from UniProt Q9Y5A9) S39A, for which the “binding against the reference” value was “weaker”.

The values are drawn from PMC12612255.
